Assay results as given in paper doi:10.1101/2023.08.28.555102 (bioRxiv, 2023).

Key:
Assay in all cases: ITC
[1] = biological target: T1, tH2 (aa91-189) mutant D^141A (vaccinia virus, UniProt P08583 91-189, D^141A)
T1 sequence: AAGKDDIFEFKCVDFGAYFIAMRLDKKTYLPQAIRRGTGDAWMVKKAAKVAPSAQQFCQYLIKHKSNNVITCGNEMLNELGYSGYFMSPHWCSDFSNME

[2] = biological target: T2, tH2 (aa91-189) mutant W^132A (vaccinia virus, UniProt P08583 91-189, W^132A)
T2 sequence: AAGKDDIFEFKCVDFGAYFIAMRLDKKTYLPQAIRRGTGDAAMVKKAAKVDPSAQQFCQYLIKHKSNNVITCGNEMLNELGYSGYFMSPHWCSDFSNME

[3] = biological target: T3, tH2 (aa91-189) mutant K^116K^117A (vaccinia virus, UniProt P08583 91-189, K^116K^117A | K^116K^117A)
T3 sequence: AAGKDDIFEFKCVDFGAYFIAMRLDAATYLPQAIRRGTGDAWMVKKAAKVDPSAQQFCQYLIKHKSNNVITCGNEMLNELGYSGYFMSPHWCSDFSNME

[4] = biological target: T4, tH2 (aa91-189) mutant D^130A (vaccinia virus, UniProt P08583 91-189, D^130A)
T4 sequence: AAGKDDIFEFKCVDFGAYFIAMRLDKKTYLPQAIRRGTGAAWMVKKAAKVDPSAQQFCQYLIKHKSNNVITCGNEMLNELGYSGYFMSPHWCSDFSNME

[5] = biological target: T5, tH2 (aa91-189) mutant G^127G^129A (vaccinia virus, UniProt P08583 91-189, G^127G^129A | G^127G^129A)
T5 sequence: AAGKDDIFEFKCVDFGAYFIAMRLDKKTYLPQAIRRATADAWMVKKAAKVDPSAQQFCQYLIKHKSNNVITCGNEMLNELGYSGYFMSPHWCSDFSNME

[6] = biological target: T6, tH2 (aa91-189) mutant R^125R^126A (vaccinia virus, UniProt P08583 91-189, R^125R^126A | R^125R^126A)
T6 sequence: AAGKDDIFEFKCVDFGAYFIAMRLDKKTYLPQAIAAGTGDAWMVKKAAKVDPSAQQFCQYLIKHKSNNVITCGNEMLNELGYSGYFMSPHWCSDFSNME

B1: recombinant A28 (aa56-146) (domain or fragment)
chain: DRRVQDVNDTISDVKQKWRCVVYPGNGFVSASIFGFQAEVGPNNTRSIRKFNTMQQCIDFTFSDVININIYNPCVVPNINNAECQFLKSVL
With B1 the binding result [1] was “binds”, the binding result [2] was “binds” and the Kd [3] was ~5.3 µM. B1: binds [4]; binds [5]; binds [6].
